According to publication PMC3699407 (Nature biotechnology, 2012):

Target: the molecule itself
Test: SEC

B1: wild-type pea cytosolic ascorbate peroxidase (APX) (enzyme)
chain: GKSYPTVSPDYQKAIEKAKRKLRGFIAEKKCAPLILRLAWHSAGTFDSKTKTGGPFGTIKHQAELAHGANNGLDIAVRLLEPIKEQFPIVSYADFYQLAGVVAVEITGGPEVPFHPGREDKPEPPPEGRLPDATKGSDHLRDVFGKAMGLSDQDIVALSGGHTIGAAHKERSGFEGPWTSNPLIFDNSYFTELLTGEKDGLLQLPSDKALLTDSVFRPLVEKYAADEDVFFADYAEAHLKLSELGFAEA
  stoichiometry N: 2
